Assay results: patent publication US20250179126A1, “A NOVEL PEPTIDE FROM A PHOTOSYNTHETIC BACERIUM DIRECTLY TARGETS MITOCHONDRIA TO TRIGGER APOPTOSIS IN ADVANCED PROSTATE CANCER CELLS” (priority 2022, published 2025)

B1: aldolase A: purified human aldolase A (purity >95%), glycolytic enzyme (protein, UniProt P04075 2-364, looked up)
Fructose-bisphosphate …: PYQYPALTPEQKKELSDIAHRIVAPGKGILAADESTGSIAKRLQSIGTENTEENRRFYRQLLLTADDRVNPCIGGVILFHETLYQKADDGRPFPQVIKSKGGVVGIKVDKGVVPLAGTNGETTTQGLDGLSERCAQYKKDGADFAKWRCVLKIGEHTPSALAIMENANVLARYASICQQNGIVPIVEPEILPDGDHDLKRCQYVTEKVLAAVYKALSDHHIYLEGTLLKPNMVTPGHACTQKFSHEEIAMATVTALRRTVPPAVTGITFLSGGQSEEEASINLNAINKCPLLKPWALTFSYGRALQASALKAWGGKKENLKAAQEEYVKRALANSLACQGKYTPSGQAGAAASESLFVSNHAY

What was measured:
[1] = tested on: spontaneously developed mammary tumors; experiment: NIR-imaging of transgenic mice; format: in vivo; settings: 5 mg/kg once, imaged after 24 h
Protocol: FIG. 29A-29C: Effect of azurin from P. aeruginosa in a transgenic animal model. 29A. Near-infrared red (NIR) dye-conjugated azurin or PBS was injected i.v. into transgenic mice that spontaneously develop mammary tumors. Twenty-four hours after azurin injection, mice were imaged with a photodynamic eye (PDE) system (left: photographic image, right: NIR fluorescence image at 800 nm). 29B. At the end of the study, the tumors were resected.
NIR-imaging of transgenic mice: Near infrared red fluorescent dye (IR800, Licor, NE) was conjugated to azurin according to the manufacturer instructions. Transgenic mice with spontaneously developed mammary tumours received NIR dye conjugated azurin at 5 mg/kg once i.p. After 24 h, specific fluorescence signal at 800 nm was recorded by the PDE-neo® NIR camera system (Hamamatsu photonics, Mitaka-USA).

P. aeruginosa = experiment: Azurin secretion by P. aeruginosa treated with purified aldolase A (western blot); format: cell-based, Pseudomonas aeruginosa; settings: 30 min
Protocol: FIG. 18A-18G: Induction of aldolase A secretion by host cells in the presence of P. aeruginosa. 18A. Human host cells (cancer and normal) and P. aeruginosa were co-incubated for 30 min at a concentration of 500,000 human cells/ml with P. aeruginosa at OD=0.3. Aldolase secretion varied between the co-cultures with cancer and normal cells. […] 18B Correlation between the aldolase A and azurin levels in co-cultures of P. aeruginosa with cancer or normal cells. 18C Cancer cells (Mel-2 and MDA-MB-231) and P. aeruginosa (WT and azunull mutant) were co-incubated for 30 min at a concentration of 500,000 human cells/ml with P. aeruginosa at OD=0.3. Secretion of aldolase into the culture supernatant was assessed by western blot analysis. 18D P. aeruginosa (OD=0.3) was treated with purified aldolase A protein at concentrations of 1 nM, 10 nM, 100 nM, and 1 μM for 30 min. […]
Western blotting: After running the NuPAGE, proteins were transferred to PVDF membranes (BioRad Laboratories Inc, Hercules, CA) which were blocked in SuperBlock (T20 TBS buffer, Thermo Fisher) for one hour. […] The signal was detected using enhanced chemiluminescence (ECL, Thermo Fisher Scientific). Quantitative analysis of the bands was performed with a computer-assisted imaging densitometer (UN-SCAN-IT gel version 5.1).

Mel-2 cells = experiment: Host cell adhesion assay, P. aeruginosa on Mel-2 cells; format: cell-based, human
Protocol: (§1) FIG. 24A-24E: 24A—Adherence assays were performed essentially as previously described38. Monolayer MDA-MB-231 (red) and Mel-2 (blue) cells were compared to siRNA-induced silencing of aldolase gene in the cancer cell lines (+) when they were co-incubated with P. aeruginosa for 2 h. To assess total cell association, monolayers were washed to remove unbound P. aeruginosa and were then disrupted and homogenized in 0.10% saponin/PBS. P. aeruginosa cells were counted by serial dilution of the homogenized suspensions and subsequent determination of colony-forming units (CFU) by plating on LB agar. Control (−) expressed as 100%. Mean±SE, *P<0.05. 24B—Monolayer MDA-MB-231 (red) and Mel-2 (blue) cells were co-incubated with P. aeruginosa in the presence or absence of exogenous aldolase A for 2 h. Similar to above, total P. aeruginosa association on cancer cells were counted by plating on LB agar. Control (0 μM aldolase A) expressed as 100%. […] Total P. aeruginosa association on cancer cells were counted by plating on LB agar. *P<0.05, NS: not significant. […] The mean+SE values were calculated.
(§2) Host cell adhesion assay: The assays were performed essentially as described before38. […] Control values of CFU/ml expressed as 100%. siRNA-induced silencing of aldolase and MUC1 genes in MDA-MB-231 and Mel2 cells as conducted as described previously80,81. […]

MDA-MB-231 cells = experiment: Host cell adhesion assay, P. aeruginosa on MDA-MB-231 cells; format: cell-based, human
Protocol: as §1, §2

Molecule	tumor localization (NIR fluorescence at 800 nm) [1]	azurin secretion by P. aeruginosa (western blot) (P. aeruginosa; P. aeruginosa OD=0.3, 1 μM aldolase A)	azurin secretion by P. aeruginosa (western blot) (P. aeruginosa; P. aeruginosa OD=0.3, purified aldolase A 1 nM-1 μM)	aldolase A concentration at which increase of adherence is saturable (Mel-2 cells; Mel-2, 2 h)	adherence of P. aeruginosa to cancer cells (Mel-2 cells; Mel-2, exogenous aldolase A, 2 h)	aldolase A concentration at which increase of adherence is saturable (MDA-MB-231 cells; MDA-MB-231, 2 h)	adherence of P. aeruginosa to cancer cells (MDA-MB-231 cells; MDA-MB-231, exogenous aldolase A, 2 h)
NIR dye-conjugated azurin: azurin conjugated to near infrared red fluorescent dye IR800	preferentially localized to spontaneously developed mammary tumors						
B1		stimulated azurin secretion	induced azurin secretion	> 1 µM	significantly increased adherence to cancer cells	> 1 µM	significantly increased adherence to cancer cells
